# Laboratory results from US20250352624A1, “SUPEROXIDE DISMUTASE AND USES THEREOF FOR PREVENTING OR TREATING DRY EYE SYNDROME” (GENOFOCUS, INC., priority 2021, published 2025).
# B1: SodA2: variant Mn-SOD of Bacillus amyloliquefaciens GF423 sodA, Asn73 and Asn136 replaced with Asp, SEQ ID NO: 4; given orally shellac-coated, mixed with dextrin (protein, listed as Bacillus amyloliquefaciens)
# chain: MAYKLPELPYAYDALEPHIDKETMTIHHTKHHNTYVTNLNKAIEGSALAEKSVDELVADLNAVPEDIRTAVRDDGGGHANHSLFWTLLSPNGGGEPTGELAEEIKSTFGSFDQFKEKFAAAAAGRFGSGWAWLVVDDGKLEITSTPNQDSPLSEGKTPVLGLDVWEHAYYLNYQNRRPDYISAFWNVVNWDEVARLYSEAK
# modifications: shellac coating; dextrin mixture
# How the values were obtained:
# Assay type in all cases: in vivo
# [1] = test system: experimental dry eye (EDE)-induced C57BL/6 mouse model; assay: Inflammatory cytokines by Luminex multiplex immunobead assay
# Experimental: (§1) To induce experimental dry eye, 7- to 8-week-old C57BL/6 mice (purchased from Damool Science) were injected subcutaneously with scopolamine hydrochloride at 0.5 mg/0.2 ml three times a day under exposure to a ventilating device for 18 hours a day. The humidity was maintained at 30%, and the temperature was maintained at 25° C. The C57BL/6 mice were classified into 7 groups, depending on concentrations of the oral drug to be administered, as shown in Table 6.
# (§2) In both eyes of all mice, at baseline, day 5, and day 10, tear volume and tear film break-up time were measured and corneal fluorescent staining score was examined. The mice were then sacrificed and tissue analysis was performed. Each group consisted of 6 animals.
# Conjunctival tissue was excised and collected from 6 eyes of 3 animals in each group, and then immersed in lysis buffer containing protease inhibitors for 30 minutes. Subsequently, the resultant was centrifuged and stored −80° C. Then, the concentrations of IFN-γ, IL-1Bβand TNF-α in the cornea and conjunctiva were analyzed using the Luminex multiplex immunobead assay.
# [2] = test system: experimental dry eye (EDE)-induced C57BL/6 mouse model; assay: Apoptosis (TUNEL immunofluorescent staining); conditions: for number of necrotic cells in the cornea: TUNEL staining
# Experimental: as §1, §2
# The eye and accessory tissues were excised from one eye of one animal in each group, fixed in 4% paraformaldehyde, embedded in paraffin, and then TUNEL staining was performed on two cross-sectional pieces of the tissue. […]
# [3] = test system: experimental dry eye (EDE)-induced C57BL/6 mouse model; assay: CD4+IFN-γ+ T cells by flow cytometry
# Experimental: as §1
# (§3) After inducing experimental dry eye in the experimental mice, the drugs prepared in Example 3 were orally administered at 2 μL per dose once a day to the treatment groups (administered at 13:30 every day). In both eyes of all mice, at baseline, day 5, and day 10, tear volume and tear film break-up time were measured and corneal fluorescent staining score was examined. The mice were then sacrificed and tissue analysis was performed. Each group consisted of 6 animals.
# The cornea, conjunctiva, and lacrimal gland were excised, sectioned with scissors, and then shaken with 0.5 mg/mL of collagenase type D (manufactured by Roche Applied Science, Indianapolis, IN, USA) at 37° C. for 60 minutes. The tissue was ground and then allowed to pass through a cell strainer, followed by centrifugation. The number of CD4+IFN-γ+T cells was calculated by performing flow cytometry with fluorescein-conjugated anti-CD4 antibody and phycoerythrin-conjugated anti-IFN-γ antibody, and the number of DCF-DA cells was calculated using the CM-H2DCFDA kit (manufactured by Thermo Fisher Scientific, Waltham, MA, USA).
# [4] = test system: experimental dry eye (EDE)-induced C57BL/6 mouse model; assay: Tear film break-up time in experimental dry eye mice
# Experimental: as §1, §3
# To evaluate tear film stability, which is known to be the most important clinical factor in dry eye, tear film break-up time was measured. 1 μl of 1% fluorescent dye (fluorescein) was instilled into the lower conjunctival sac of each mouse, and then each mouse was allowed to blink about three times. Subsequently, the eyes were gently made open, and then the time (seconds) until the first defect occurred in the stained tear film was measured using a slit lamp microscope equipped with a cobalt blue filter. This was repeated three times to obtain the average value.
# [5] = test system: experimental dry eye (EDE)-induced C57BL/6 mouse model; assay: Tear volume (phenol red thread) in experimental dry eye mice
# Experimental: as §1, §3
# Tear volume was determined as follows. A phenol red-impregnated cotton thread was brought into contact for 20 seconds with the conjunctival sac on the lateral canthus side of each mouse, and the length was measured using SMZ microscopy. Then, the measured length was converted into a volume by substituting it into a given formula (see Villareal A L, Farley W, Pflugfelder S C. Effect of topical ophthalmic epinastine and olopatadine on tear volume in mice. Eye Contact Lens. 2006; 32:272-6).
# [6] = test system: experimental dry eye (EDE)-induced C57BL/6 mouse model; assay: Corneal fluorescent staining score in experimental dry eye mice; conditions: for corneal fluorescent staining score: total 0 to 16 points
# Experimental: as §1, §3
# 1 μL of 1% fluorescent dye was instilled into the eyes of each mouse, followed by washing with saline. Subsequently, the cornea of each mouse was observed using a slit lamp microscope to score the degree of epithelial injury (the extent to which fluorescent staining occurred).
# [7] = conjunctiva, 2.5 mg/kg oral once a day
# [8] = conjunctiva, 5 mg/kg oral once a day
# [9] = conjunctiva, 10 mg/kg oral once a day
# [10] = cornea and conjunctiva, CsA and oral SodA2 groups
# [11] = cornea, 2.5 mg/kg oral once a day
# [12] = cornea, 5 mg/kg oral once a day
# [13] = cornea, 10 mg/kg oral once a day
# [14] = before drug administration, 2.5 mg/kg oral group
# [15] = before drug administration, 5 mg/kg oral group
# [16] = before drug administration, 10 mg/kg oral group
# [17] = day 5 of administration, 2.5 mg/kg oral once a day
# [18] = day 5 of administration, 5 mg/kg oral once a day
# [19] = day 5 of administration, 10 mg/kg oral once a day
# [20] = day 10 of administration, 2.5 mg/kg oral once a day
# [21] = day 10 of administration, 5 mg/kg oral once a day
# [22] = day 10 of administration, 10 mg/kg oral once a day
# [23] = days 5 and 10, 0.05% CsA eye drop, SodA2 2.5, 5 and 10 mg/kg oral
molecule,measurement,setting,value
B1,IFN-γ,[1]; [7],21.27 ± 17.49 pg/mL
same,IL-1β,[1]; [7],21.5 ± 9.26 pg/mL
same,TNF-α,[1]; [7],22.6 ± 7.72 pg/mL
same,IFN-γ,[1]; [8],18.28 ± 11.75 pg/mL
same,IL-1β,[1]; [8],19.0 ± 7.17 pg/mL
same,TNF-α,[1]; [8],18.8 ± 11.6 pg/mL
same,IFN-γ,[1]; [9],15.53 ± 11.43 pg/mL
same,IL-1β,[1]; [9],16.3 ± 9.12 pg/mL
same,TNF-α,[1]; [9],22.5 ± 11.4 pg/mL
same,"concentrations of IFN-γ, IL-1β, and TNF-α as compared with the EDE and vehicle groups",[1]; [10],tendency of decreased concentrations
same,IFN-γ,[1]; [11],10.77 ± 8.30 pg/mL
same,IL-1β,[1]; [11],15.45 ± 8.93 pg/mL
same,TNF-α,[1]; [11],22.6 ± 7.72 pg/mL
same,IFN-γ,[1]; [12],9.80 ± 6.11 pg/mL
same,IL-1β,[1]; [12],13.17 ± 2.26 pg/mL
same,TNF-α,[1]; [12],18.8 ± 11.6 pg/mL
same,IFN-γ,[1]; [13],7.89 ± 7.90 pg/mL
same,IL-1β,[1]; [13],8.69 ± 4.18 pg/mL
same,TNF-α,[1]; [13],22.5 ± 11.4 pg/mL
same,inflammatory cytokines as compared with CsA,"[1]; oral, all doses",tended to decrease inflammatory cytokines more than CsA
same,number of necrotic cells in the cornea,[2]; 2.5 mg/kg oral once a day,6.2±1.1 cells/100 μm
same,number of necrotic cells in the cornea,[2]; 5 mg/kg oral once a day,4.0±1.3 cells/100 μm
same,number of necrotic cells in the cornea,[2]; 10 mg/kg oral once a day,4.6±1.3 cells/100 μm
same,number of dead cells in the cornea as compared with the EDE and vehicle groups,[2]; groups treated with CsA and oral SodA2,significantly decreased
same,proportion of CD4+IFN-γ+T cells,[3]; [7],21.00±0.63%
same,proportion of CD4+IFN-γ+T cells,[3]; [8],22.87±2.47%
same,proportion of CD4+IFN-γ+T cells,[3]; [9],25.83±0.27%
same,proportion of CD4+IFN-γ+T cells as compared with the EDE and vehicle groups,[3]; [10],significant decrease
same,proportion of CD4+IFN-γ+T cells as compared with the 0.05% CsA group,"[3]; cornea, 2.5 mg/kg oral",significantly lower
same,proportion of CD4+IFN-γ+T cells,[3]; [11],21.18±0.15%
same,proportion of CD4+IFN-γ+T cells,[3]; [12],23.87±0.17%
same,proportion of CD4+IFN-γ+T cells,[3]; [13],30.24±1.33%
same,tear film break-up time as compared with the 0.05% CsA group,[4]; 5 mg/kg and 10 mg/kg oral,similar
same,tear film break-up time,[4]; [14],1.44 ± 0.15 s
same,tear film break-up time,[4]; [15],1.42 ± 0.16 s
same,tear film break-up time,[4]; [16],1.41 ± 0.25 s
same,tear film break-up time,[4]; [17],1.23 ± 0.2 s
same,tear film break-up time,[4]; [18],1.31 ± 0.3 s
same,tear film break-up time,[4]; [19],1.28 ± 0.3 s
same,tear film break-up time,[4]; [20],1.21 ± 0.3 s
same,tear film break-up time,[4]; [21],1.28 ± 0.3 s
same,tear film break-up time,[4]; [22],1.3 ± 0.3 s
same,tear film break-up time as compared with the EDE and vehicle groups,[4]; [23],significant increase
same,tear volume as compared with the 0.05% CsA group,[5]; 5 mg/kg oral,more significant increase
same,tear volume,[5]; [14],0.024 ± 0.003 µL
same,tear volume,[5]; [15],0.022 ± 0.004 µL
same,tear volume,[5]; [16],0.023 ± 0.004 µL
same,tear volume,[5]; [17],0.026 ± 0.005 µL
same,tear volume,[5]; [18],0.026 ± 0.005 µL
same,tear volume,[5]; [19],0.026 ± 0.005 µL
same,tear volume,[5]; [20],0.027 ± 0.005 µL
same,tear volume,[5]; [21],0.03 ± 0.005 µL
same,tear volume,[5]; [22],0.028 ± 0.004 µL
same,tear volume as compared with the EDE and vehicle groups,[5]; [23],significant increase
same,corneal fluorescent staining score as compared with the 0.05% CsA group,[6]; 5 mg/kg oral,more significant decrease
same,corneal fluorescent staining score,[6]; [14],9.2±1.7 points
same,corneal fluorescent staining score,[6]; [15],9.4±1.7 points
same,corneal fluorescent staining score,[6]; [16],9.3±1.7 points
same,corneal fluorescent staining score,[6]; [17],10.4±1.9 points
same,corneal fluorescent staining score,[6]; [18],9.9±2.5 points
same,corneal fluorescent staining score,[6]; [19],10.1±2.9 points
same,corneal fluorescent staining score,[6]; [20],8.8±2 points
same,corneal fluorescent staining score,[6]; [21],7.8±1.9 points
same,corneal fluorescent staining score,[6]; [22],8.2±1.9 points
same,corneal fluorescent staining score as compared with the EDE and vehicle groups,[6]; [23],significant decrease
